Test results from PMC9581967, “Helical ultrastructure of the metalloprotease meprin α in complex with a small molecule inhibitor” (Nature Communications, 2022).

Experiments:
[1] = biological target: meprin α wild type (V22-S600 construct; zymogen or activated form not told for the experiment) (human (from the printed accession Q16819)) (UniProt Q16819); experiment: MALDI-TOF mass spectrometry; linear positive mode, DHAP matrix; shows only covalently (disulphide) linked species; N counts subunits
[2] = biological target: meprin α R372T (human (from the printed accession Q16819)) (UniProt Q16819); experiment: electron microscopy; variants imaged, concentration not stated (below the high concentration of 3 µM); N counts subunits
[3] = biological target: meprin α R372T (human (from the printed accession Q16819)) (UniProt Q16819); experiment: MALDI-TOF mass spectrometry; linear positive mode, DHAP matrix; shows only covalently (disulphide) linked species; N counts subunits
[4] = biological target: meprin α R372A (human (from the printed accession Q16819)) (UniProt Q16819); experiment: electron microscopy; variants imaged, concentration not stated (below the high concentration of 3 µM); N counts subunits
[5] = biological target: meprin α R372A (human (from the printed accession Q16819)) (UniProt Q16819); experiment: mass photometry; single-molecule mass measurement, 20 °C; low concentration (10 nM in the results, roughly 2-5 nM in the methods); association of homodimers through the helical interface; N counts subunits
[6] = biological target: the molecule itself; experiment: cryo-EM structure; meprin α alone (zymogen or active form), helical filament of covalent homodimers; 30 mM Tris, 100 mM NaCl, pH 7.4; pseudo single-particle analysis of filament segments

Molecule: meprin α wild type (V22-S600 construct; zymogen or activated form not told for the experiment) (from UniProt Q16819 22-600) (enzyme)
- stoichiometry N [1]: 2

Molecule: meprin α R372T (from UniProt Q16819 22-600) (enzyme)
- stoichiometry N [2]: 2
- stoichiometry N [3]: 2

Molecule: meprin α R372A (from UniProt Q16819 22-600) (enzyme)
- stoichiometry N [4]: 2
- stoichiometry N [5]: 4

B1: pro-meprin α (V22-S600), wild type zymogen (enzyme, UniProt Q16819 22-600, looked up)
chain: VPIKYLPEENVHDADFGEQKDISEINLAAGLDLFQGDILLQKSRNGLRDPNTRWTFPIPYILADNLGLNAKGAILYAFEMFRLKSCVDFKPYEGESSYIIFQQFDGCWSEVGDQHVGQNISIGQGCAYKAIIEHEILHALGFYHEQSRTDRDDYVNIWWDQILSGYQHNFDTYDDSLITDLNTPYDYESLMHYQPFSFNKNASVPTITAKIPEFNSIIGQRLDFSAIDLERLNRMYNCTTTHTLLDHCTFEKANICGMIQGTRDDTDWAHQDSAQAGEVDHTLLGQCTGAGYFMQFSTSSGSAEEAALLESRILYPKRKQQCLQFFYKMTGSPSDRLVVWVRRDDSTGNVRKLVKVQTFQGDDDHNWKIAHVVLKEEQKFRYLFQGTKGDPQNSTGGIYLDDITLTETPCPTGVWTVRNFSQVLENTSKGDKLQSPRFYNSEGYGFGVTLYPNSRESSGYLRLAFHVCSGENDAILEWPVENRQVIITILDQEPDVRNRMSSSMVFTTSKSHTSPAINDTVIWDRPSRVGTYHTDCNCFRSIDLGWSGFISHQMLKRRSFLKNDDLIIFVDFEDITHLS
modifications: N-linked glycosylations
notes: meprin α, UniProt Q16819, residues V22-S600 (native signal peptide omitted, stop codon after S600; lacks the EGF-like and transmembrane regions); pro-peptide still on the chain; Disulphide-linked (C308) homodimer; the homodimers join non-covalently into a helical filament; Secreted through the BiP signal peptide of pMT/BiP/V5; also called latent state; meprin α ectodomain; source: Schneider-2 …
- binding result [6]: binds
